Tests used:
[1] = target: T1, recombinant human mesothelin (full-length extracellular domain) (human, UniProt Q13421 296-580, limits assumed); assay: ELISA, recombinant human mesothelin coated at 50 ng/well, Fab detected with HRP anti-FLAG
T1 construct: extracellular domain; Bought protein coated on ELISA plates at 50 ng per well; also called 重组人间皮素; 人间皮素(MSLN)蛋白

[2] = target: T1, recombinant human mesothelin …; assay: ELISA, recombinant human mesothelin coated at 50 ng/well, fit to a Langmuir isotherm

T1 sequence (Q13421 other isoform, or with tags, fused parts or gaps limits assumed): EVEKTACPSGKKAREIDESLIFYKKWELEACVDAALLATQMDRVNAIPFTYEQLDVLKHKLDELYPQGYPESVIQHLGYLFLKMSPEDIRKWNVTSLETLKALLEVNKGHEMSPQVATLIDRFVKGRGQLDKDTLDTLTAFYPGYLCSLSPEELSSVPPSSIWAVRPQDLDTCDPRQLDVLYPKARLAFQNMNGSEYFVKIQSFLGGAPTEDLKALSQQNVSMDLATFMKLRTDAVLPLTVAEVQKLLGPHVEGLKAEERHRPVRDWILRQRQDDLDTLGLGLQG

Row | EC50 [1] [nM] | EC50 [2] [nM] | Binder
1 | 21 |  | M10 Fab (Fab, V domains shown, also called Fab克隆M10) VH: QLVETGGGLVQPGRSLRLSCAASGFTFDDYAMHWVRQAPGKGLEWVSGISWNSGSIGYADSVKGRFTISRDNAKNSLYLQMNSLRAEDTAVYYCARDSGSSGWYGYFQHWGQGTLVTVSS VL: SYVLTQPPSVSVSPGQTARITCSGDALPKQYAFWYQQKPGQAPVLVIYKDSERPSGIPERFSGSSSGTTVTLTISGVQAEDEADYYCQSADSSATSVIFGGGTKLTVLG
2 |  | 0.2 | M10 mAb (anti-human mesothelin monoclonal antibody IgG1) (antibody, V domains shown, Full human IgG1: the heavy-chain Fd of M10 Fab fused to human IgG1 Fc, about 150 kDa non-reduced; also called 抗间皮素M10 mAb; 抗间皮素单克隆抗体) VH: QLVETGGGLVQPGRSLRLSCAASGFTFDDYAMHWVRQAPGKGLEWVSGISWNSGSIGYADSVKGRFTISRDNAKNSLYLQMNSLRAEDTAVYYCARDSGSSGWYGYFQHWGQGTLVTVSS VL: SYVLTQPPSVSVSPGQTARITCSGDALPKQYAFWYQQKPGQAPVLVIYKDSERPSGIPERFSGSSSGTTVTLTISGVQAEDEADYYCQSADSSATSVIFGGGTKLTVLG

Reference: CN114423789A (ZHEJIANG JIANMAI PHARMACEUTICAL CO LTD, dated 2022)
